Results on nine variants are retold here after IntAct's records for PubMed 31515488.

B1: Baculoviral IAP repeat-containing protein 7 (Homo sapiens), Q96CA5 (parent)
chain: MGPKDSAKCLHRGPQPSHWAAGDGPTQERCGPRSLGSPVLGLDTCRAWDHVDGQILGQLRPLTEEEEEEGAGATLSRGPAFPGMGSEELRLASFYDWPLTAEVPPELLAAAGFFHTGHQDKVRCFFCYGGLQSWKRGDDPWTEHAKWFPSCQFLLRSKGRDFVHSVQETHSQLLGSWDPWEEPEDAAPVAPSVPASGYPELPTPRREVQSESAQEPGGVSPAEAQRAWWVLEPPGARDVEAQLRRLQEERTCKVCLDRAVSIVFVPCGHLVCAECAPGLQLCPICRAPVRSRVRTFLS
partner: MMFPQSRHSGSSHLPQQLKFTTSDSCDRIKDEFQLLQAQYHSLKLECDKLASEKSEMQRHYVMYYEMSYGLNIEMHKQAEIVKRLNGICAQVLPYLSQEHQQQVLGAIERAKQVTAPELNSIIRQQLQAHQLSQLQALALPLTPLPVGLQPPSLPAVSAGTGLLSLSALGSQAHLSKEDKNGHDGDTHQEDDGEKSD
B2: Notch homolog 2 N-terminal-like protein A (Homo sapiens), Q7Z3S9 (parent)
chain: MCVTYHNGTGYCKCPEGFLGEYCQHRDPCEKNRCQNGGTCVAQAMLGKATCRCASGFTGEDCQYSTSHPCFVSRPCLNGGTCHMLSRDTYECTCQVGFTGKECQWTDACLSHPCANGSTCTTVANQFSCKCLTGFTGQKCETDVNECDIPGHCQHGGTCLNLPGSYQCQCLQGFTGQYCDSLYVPCAPSPCVNGGTCRQTGDFTFECNCLPETVRRGTELWERDREVWNGKEHDEN
partner: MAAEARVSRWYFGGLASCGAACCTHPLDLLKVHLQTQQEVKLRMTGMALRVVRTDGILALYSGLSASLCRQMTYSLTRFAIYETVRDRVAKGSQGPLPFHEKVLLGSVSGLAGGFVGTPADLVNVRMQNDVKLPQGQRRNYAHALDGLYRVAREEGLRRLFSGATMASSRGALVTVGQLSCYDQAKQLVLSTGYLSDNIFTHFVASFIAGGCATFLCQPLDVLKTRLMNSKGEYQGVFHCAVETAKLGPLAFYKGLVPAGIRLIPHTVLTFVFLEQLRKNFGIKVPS
B3: Fibronectin type III and SPRY domain-containing protein 2 (Homo sapiens), A1L4K1 (parent)
chain: MEEESGEELGLDRSTPKDFHFYHMDLYDSEDRLHLFPEENTRMRKVVQAEMANESRGAGDGKAQRDLQEEVDELVHLYGLEDDHELGDEFVDENIPRTGVSEYPPYMMKRRDPAREQRDWRLSGEAAEAEDLGFGGWGSAGQCQDLREAYRYTHGRASEEYECYVIPEEEDEEEAADVFCVTCKTPIRAFQKVFDEHKEHEVIPLNEALESAKDEIHKNMYKLEKQIIEMENFANHLEEVFITVEENFGKQEQNFESHYNEILETLAQKYEEKIQALGEKKKEKLEALYGQLVSCGENLDTCKELMETIEEMCHEEKVDFIKDAVAMADRLGKFLKTKTDVEISAQPEFEDQTLDFSDVEQLMGSINTIPAPSAPVINPQVPNSATGSSVRVCWSLYSDDTVESYQLSYRPVQDSSPGTDQAEFTVTVKETYCSVTNLVPNTQYEFWVTAHNRAGPSPSSERAVYMTAPSPPIIKTKEIRSCEEAVLICWESGNLNPVDSYTVELTQAESPEASGVTESVVGIPTCESVVQLQPGRSYIIYVRALNMGGPSVRSEPATVHTIGSYFRLNKDTCHPWLTISEDGLTAVRSERRTPARELSPSDTHFTRCVAVMGNLIPVRGHHYWEVEVDEHLDYRVGVAFADVRKQEDLGANCLSWCMRHTFASSRHKYEFLHNRTTPDIRITVPPKKIGILLDYEHSKLSFFNVDLSQHLYTFSCQLHEFVHPCFSLEKPGCLKVHNGISMPKHVTFY
partner: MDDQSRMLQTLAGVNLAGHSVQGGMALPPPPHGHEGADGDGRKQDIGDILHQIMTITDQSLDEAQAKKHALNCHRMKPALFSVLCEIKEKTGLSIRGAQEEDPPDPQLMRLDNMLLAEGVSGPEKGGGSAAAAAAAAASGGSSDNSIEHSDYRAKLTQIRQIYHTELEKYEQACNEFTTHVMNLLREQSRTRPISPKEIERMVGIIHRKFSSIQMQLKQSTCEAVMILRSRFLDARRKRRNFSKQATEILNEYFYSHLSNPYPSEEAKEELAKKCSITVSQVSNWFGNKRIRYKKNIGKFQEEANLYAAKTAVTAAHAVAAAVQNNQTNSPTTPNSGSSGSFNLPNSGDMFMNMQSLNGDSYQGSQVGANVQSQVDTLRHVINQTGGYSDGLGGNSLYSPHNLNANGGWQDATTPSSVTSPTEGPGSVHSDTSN
B4: Angiomotin (Homo sapiens), Q4VCS5 (parent)
chain: MRNSEEQPSGGTTVLQRLLQEQLRYGNPSENRSLLAIHQQATGNGPPFPSGSGNPGPQSDVLSPQDHHQQLVAHAARQEPQGQEIQSENLIMEKQLSPRMQNNEELPTYEEAKVQSQYFRGQQHASVGAAFYVTGVTNQKMRTEGRPSVQRLNPGKMHQDEGLRDLKQGHVRSLSERLMQMSLATSGVKAHPPVTSAPLSPPQPNDLYKNPTSSSEFYKAQGPLPNQHSLKGMEHRGPPPEYPFKGMPPQSVVCKPQEPGHFYSEHRLNQPGRTEGQLMRYQHPPEYGAARPAQDISLPLSARNSQPHSPTSSLTSGGSLPLLQSPPSTRLSPARHPLVPNQGDHSAHLPRPQQHFLPNQAHQGDHYRLSQPGLSQQQQQQQQQHHHHHHHQQQQQQQPQQQPGEAYSAMPRAQPSSASYQPVPADPFAIVSRAQQMVEILSDENRNLRQELEGCYEKVARLQKVETEIQRVSEAYENLVKSSSKREALEKAMRNKLEGEIRRMHDFNRDLRERLETANKQLAEKEYEGSEDTRKTISQLFAKNKESQREKEKLEAELATARSTNEDQRRHIEIRDQALSNAQAKVVKLEEELKKKQVYVDKVEKMQQALVQLQAACEKREQLEHRLRTRLERELESLRIQQRQGNCQPTNVSEYNAAALMELLREKEERILALEADMTKWEQKYLEENVMRHFALDAAATVAAQRDTTVISHSPNTSYDTALEARIQKEEEEILMANKRCLDMEGRIKTLHAQIIEKDAMIKVLQQRSRKEPSKTEQLSCMRPAKSLMSISNAGSGLLSHSSTLTGSPIMEEKRDDKSWKGSLGILLGGDYRAEYVPSTPSPVPPSTPLLSAHSKTGSRDCSTQTERGTESNKTAAVAPISVPAPVAAAATAAAITATAATITTTMVAAAPVAVAAAAAPAAAAAPSPATAAATAAAVSPAAAGQIPAAASVASAAAVAPSAAAAAAVQVAPAAPAPVPAPALVPVPAPAAAQASAPAQTQAPTSAPAVAPTPAPTPTPAVAQAEVPASPATGPGPHRLSIPSLTCNPDKTDGPVFHSNTLERKTPIQILGQEPDAEMVEYLI
partner: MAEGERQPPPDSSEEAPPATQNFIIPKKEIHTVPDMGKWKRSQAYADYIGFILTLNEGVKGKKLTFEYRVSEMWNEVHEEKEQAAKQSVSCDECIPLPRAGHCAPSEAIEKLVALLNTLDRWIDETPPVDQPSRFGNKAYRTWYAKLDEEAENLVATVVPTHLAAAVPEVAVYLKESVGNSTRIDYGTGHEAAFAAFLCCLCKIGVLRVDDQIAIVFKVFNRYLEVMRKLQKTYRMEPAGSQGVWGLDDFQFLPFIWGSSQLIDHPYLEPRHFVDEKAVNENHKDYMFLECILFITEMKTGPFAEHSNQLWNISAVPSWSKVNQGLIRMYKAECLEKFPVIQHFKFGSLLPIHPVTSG
B5: Protein LDOC1 (Homo sapiens), O95751 (parent)
chain: MVDELVLLLHALLMRHRALSIENSQLMEQLRLLVCERASLLRQVRPPSCPVPFPETFNGESSRLPEFIVQTASYMLVNENRFCNDAMKVAFLISLLTGEAEEWVVPYIEMDSPILGDYRAFLDEMKQCFGWDDDEDDDDEEEEDDY
partner: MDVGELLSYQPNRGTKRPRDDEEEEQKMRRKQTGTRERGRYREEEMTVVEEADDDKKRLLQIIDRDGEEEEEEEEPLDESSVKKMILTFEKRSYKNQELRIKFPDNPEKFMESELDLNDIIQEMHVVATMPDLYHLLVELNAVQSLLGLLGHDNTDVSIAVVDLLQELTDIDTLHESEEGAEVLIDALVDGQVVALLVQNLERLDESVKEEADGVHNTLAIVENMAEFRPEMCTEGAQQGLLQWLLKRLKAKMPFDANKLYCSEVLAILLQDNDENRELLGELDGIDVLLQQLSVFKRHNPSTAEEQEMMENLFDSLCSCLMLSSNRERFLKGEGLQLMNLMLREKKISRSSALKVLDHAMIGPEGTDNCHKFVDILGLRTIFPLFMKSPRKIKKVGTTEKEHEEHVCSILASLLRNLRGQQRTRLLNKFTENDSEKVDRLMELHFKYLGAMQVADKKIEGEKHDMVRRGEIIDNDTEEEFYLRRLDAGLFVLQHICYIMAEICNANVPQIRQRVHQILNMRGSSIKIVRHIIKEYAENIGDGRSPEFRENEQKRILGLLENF
B6: Homeobox protein PKNOX1 (Homo sapiens), P55347 (parent)
chain: MMATQTLSIDSYQDGQQMQVVTELKTEQDPNCSEPDAEGVSPPPVESQTPMDVDKQAIYRHPLFPLLALLFEKCEQSTQGSEGTTSASFDVDIENFVRKQEKEGKPFFCEDPETDNLMVKAIQVLRIHLLELEKVNELCKDFCSRYIACLKTKMNSETLLSGEPGSPYSPVQSQQIQSAITGTISPQGIVVPASALQQGNVAMATVAGGTVYQPVTVVTPQGQVVTQTLSPGTIRIQNSQLQLQLNQDLSILHQDDGSSKNKRGVLPKHATNVMRSWLFQHIGHPYPTEDEKKQIAAQTNLTLLQVNNWFINARRRILQPMLDSSCSETPKTKKKTAQNRPVQRFWPDSIASGVAQPPPSELTMSEGAVVTITTPVNMNVDSLQSLSSDGATLAVQQVMMAGQSEDESVDSTEEDAGALAPAHISGLVLENSDSLQ
partner: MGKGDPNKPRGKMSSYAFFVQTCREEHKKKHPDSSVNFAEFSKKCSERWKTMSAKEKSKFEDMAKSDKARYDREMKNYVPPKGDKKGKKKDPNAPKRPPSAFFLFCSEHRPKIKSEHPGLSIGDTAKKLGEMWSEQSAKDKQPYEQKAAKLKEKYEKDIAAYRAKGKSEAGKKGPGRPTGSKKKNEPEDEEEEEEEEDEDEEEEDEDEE

In the first test the parent is B1. As to conditions: with tle5_human TLE5, Q08117.
As for H164R, the “effect of a mutation on the interaction” value was “with no effect”.

Variants of B1 are the subject of another test. As to conditions: with tle5_human TLE5, Q08117. This is another data set of the same source.
As to H164R, the “effect of a mutation on the interaction” value was “with no effect”.

Variants of B2 are the subject of a further test. The note with it: with dic_human SLC25A10, Q9UBX3.
For A115T, the “effect of a mutation on the interaction” value is reported as “with no effect”. For R74Q, the “effect of a mutation on the interaction” value is “with no effect”.

In another test the parent is B3. The note with it: with pbx3_human PBX3, P40426.
With E720K, the “effect of a mutation on the interaction” value is given as “with no effect”. On to K333T, for which the “effect of a mutation on the interaction” value was “with no effect”.

The variants in another test derive from B4. The note with it: with ptpa_human PTPA.
For the variant T899A, the “effect of a mutation on the interaction” value is recorded as “with no effect”.

Variants of B5 are the subject of the next test. As to conditions: with ctbl1_human CTNNBL1, Q8WYA6.
For L12H, the “effect of a mutation on the interaction” value was “disrupting interaction strength”.

The next test covers variants of B6. The note with it: with hmgb2_human HMGB2, P26583.
Turning to E103D, the “effect of a mutation on the interaction” value is “with no effect”. Take V265I: the “effect of a mutation on the interaction” value was “with no effect”.

Variants of B6 are the subject of the next test. As to conditions: with hmgb2_human HMGB2, P26583. The source holds these as a separate data set.
For V265I, the “effect of a mutation on the interaction” value is recorded as “with no effect”.
